Like-named read-outs stand apart in the source and are kept apart here.
What was measured:
Boc-V-P-R-AMC [1] = system: T1, Boc-V-P-R-AMC
T1 sequence: VPR

Boc-A-A-P-F-AMC [2] = system: T2, Boc-A-A-P-F-AMC
T2 sequence: AAPF

Boc-V-P-R-AMC [3] = target: T3, Boc-V-P-R-AMC
T3 chain: VPR

Boc-A-A-P-F-AMC [4] = target: T4, Boc-A-A-P-F-AMC
T4 chain: AAPF

trypsin
hydrolysis of the fluorogenic peptide (release of AMC, arbitrary fluorescence counts) (Boc-V-P-R-AMC [1]): Fluorescence counts increased, in a dose-dependent manner, with increased concentrations of each enzyme | kinetic analysis, fluorescence counts at 30 sec intervals for 15 min (Boc-V-P-R-AMC [1]): kallikrein 14- and trypsin-mediated hydrolysis of V-P-R-AMC increases over time

chymotrypsin
hydrolysis of the fluorogenic peptide (release of AMC, arbitrary fluorescence counts) (Boc-A-A-P-F-AMC [2]): Chymotrypsin, as expected, effectively cleaved the peptide substrate in a dose-dependent fashion | kinetic analysis, fluorescence counts at 30 sec intervals for 15 min (Boc-A-A-P-F-AMC [2]): Chymotrypsin activity increases with increasing concentrations and over time

B1: recombinant hK14^myc-His (protein)
chain: EAEFIIGGHTCTRSSQPWQAALLAGPRRRFLCGGALLSGQWVITAAHCGRPILQVALGKHNLRRWEATQQVLRVVRQVTHPNYNSRTHDNDLMLLQLQQPARIGRAVRPIEVTQACASPGTSCRVSGWGTISSPIARYPASLQCVNINISPDEVCQKAYPRTITPGMVCAGVPQGGKDSCQGDSGGPLVCRGQLQGLVSWGMERCALPGYPGVYTNLCKYRSWIEETMRDK
hydrolysis of the fluorogenic peptide (release of AMC, arbitrary fluorescence counts) (Boc-V-P-R-AMC [3]): kallikrein 14^myc-His was not able to hydrolyze V-P-R-AMC to a significant extent and is not considered to be active | hydrolysis of the fluorogenic peptide (release of AMC, arbitrary fluorescence counts) (Boc-A-A-P-F-AMC [4]): neither recombinant kallikrein 14 nor kallikrein 14^myc-His hydrolyzed the peptide at any of the concentrations used

B2: recombinant kallikrein 14 (without c-myc/His epitopes) (protein)
chain: IIGGHTCTRSSQPWQAALLAGPRRRFLCGGALLSGQWVITAAHCGRPILQVALGKHNLRRWEATQQVLRVVRQVTHPNYNSRTHDNDLMLLQLQQPARIGRAVRPIEVTQACASPGTSCRVSGWGTISSPIARYPASLQCVNINISPDEVCQKAYPRTITPGMVCAGVPQGGKDSCQGDSGGPLVCRGQLQGLVSWGMERCALPGYPGVYTNLCKYRSWIEETMRDK
hydrolysis of the fluorogenic peptide (release of AMC, arbitrary fluorescence counts) (Boc-V-P-R-AMC [3]): recombinant kallikrein 14 is able to effectively cleave the trypsin substrate, V-P-R-AMC (SEQ ID NO. 30) at a similar efficiency as trypsin, the positive control | kinetic analysis, fluorescence counts at 30 sec intervals for 15 min (Boc-V-P-R-AMC [3]): kallikrein 14- and trypsin-mediated hydrolysis of V-P-R-AMC increases over time | hydrolysis of the fluorogenic peptide (release of AMC, arbitrary fluorescence counts) (Boc-A-A-P-F-AMC [4]): neither recombinant kallikrein 14 nor kallikrein 14^myc-His hydrolyzed the peptide at any of the concentrations used | kinetic analysis, fluorescence counts at 30 sec intervals for 15 min (Boc-A-A-P-F-AMC [4]): kallikrein 14 produces only background fluorescence counts (identical to the negative control containing substrate only) at all concentrations throughout the experiment

From patent publication US20060223059A1
